Laboratory results taken from patent US20230220021A1, “CYCLIC PEPTIDE INHIBITORS OF PSD-95 AND USES THEREOF” (University of Copenhagen, priority 2020, published 2023).
[ ]: non-standard residue; d: D form.

Target: (7× His)-PSD-95-PDZ2 wild type (UniProt P78352)
Assay: FP competition

Chain of (7× His)-PSD-95-PDZ2 wild type (P78352 160-246): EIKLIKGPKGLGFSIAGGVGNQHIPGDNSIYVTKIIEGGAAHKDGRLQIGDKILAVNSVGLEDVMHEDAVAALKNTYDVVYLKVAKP

B1: cyclic nNOS β-hairpin peptide T116M (peptide)
peptide: cyclo(THLETTFTGDGMPKTIRVTQ[dP]GQ)
modifications: ring closure inferred; not fully specified
In the case of B1, the Ki is reported as 3.76 µM and the Relative Ki (Ki mut/Ki WT) is reported as 2.51.
